Data from patent publication US20220249369.

Biological target: T1, OmpTs, DABCYL-RRSRRV-K(5-FAM)
T1 chain: RRSRRVK

B1: Outer Membrane Protease T (protein)
chain: STETLSFTPDNINADISLGTLSGKTKERVYLAEEGGRKVSQLDWKFNNAAIIKGAINWDLMPQISIGAAGWTTLGSRGGNMVDQDWMDSSNPGTWTDESRHPDTQLNYANEFDLNIKGWLLNEPNYRLGLMAGYQESRYSFTARGGSYIYSSEEGFRDDIGSFPNGERAIGYKQRFKMPYIGLTGSYRYEDFELGGTFKYSGWVESSDNDEHYDPGKRITYRSKVKDQNYYSVAVNAGYYVTPNAKVYVEGAWNRVTNKKGNTSLYDHNNNTSDYSKNGAGIENYNFITTAGLKYTF
- cleavage of quenched fluorescent substrate: a substrate (RRSRRVK (SEQ ID NO:9)) specific for the E. coli surface protease OmpT
